From patent publication US20190374567A1, “Reverse Transcriptase Dependent Conversion of RNA Templates Into DNA” (priority 2016, published 2019)

What was measured:
Superscript III = test: RT-PCR of 2.2 kb eGFP transcript with Superscript III; assay type: biochemical; conditions: 1.5 μg RNA
Source text: (§1) Samples were DNase treated using the Qiagen RNase-Free DNase Set (Qiagen Catalog #79254) followed by purification using the Qiagen RNeasy Mini Kit (Qiagen Catalog #74104) and manufacturer's instructions. To eliminate potential gDNA contamination, each RNA sample was DNase treated four times.
(§2) cDNA was generated using Invitrogen's SuperScript III First-Strand Synthesis System for RT-PCR (Invitrogen Catalog #18080-051) or a recombinant HIV Reverse Transcriptase (HIV RT, Worthington Biochemical Corporation Catalog #LS05003). All reactions received 2 μl 10 RT reaction buffer, 4 μl 25 mM MgCl2, 2 μl 0.1 M DTT, 1 μl 10 mM dNTPs, and 2 μM primer (8 μM when Phosphorothioate Primer used). For reactions using Superscript III, 200 U enzyme was used. Reactions using HIV RT contained 10 U enzyme. Different concentrations of RNA template were used, ranging from 1.5 to 5 μg/reaction. Table 21. No-RT and no-template controls were set up during reverse transcription. Reactions using Superscript III enzyme were incubated at 65° C. for 5 minutes, 50° C. for 60 minutes, and 85° C. for 5 minutes. Reactions using HIV RT were incubated at 65° C. for 5 minutes, 37° C. for 60 minutes, and 85° C. for 5 minutes. HIV RT was tested in the presence and absence of beta-thujaplicinol.
(§3) PCR Analysis: PCR was performed using primers PCR-F2 and PCR-R2. PCR products were resolved using a 1% agarose gel and purified using the QIAquick Gel Extraction Kit (Qiagen Catalog #28704). […]

[1] = mRNA quality check before and after DNase treatment (agarose gel, OD 260/280); assay type: physicochemical
Description: The experimental procedure and assay readout for the analysis and removal of the mRNA contamination by plasmidic DNA was as follows: 1) the 4 mRNAs solutions were thawed, aliquoted and stored at −80° C., 2) aliquots of the mRNAs solutions were treated with the DNase as recommended by the manufacturer (Qiagen, cat #79254): four rounds of DNase were successively performed, 3) following the DNase digestion, the mRNAs were purified on columns as recommended by the manufacturer (Qiagen, RNeasy Elute), 4) the eluates were quantified and controlled on an Agarose gel, 5) a PCR amplification reaction was performed to evaluate the DNA contamination of the mRNA solutions before and after the DNase treatment.
Timeline of mRNAs solutions control and DNA digestion. mRNA solutions are thawed and digested with DNase. The solutions are purified on a column. The mRNA is quantified and quality control on an agarose gel is performed after purification. A PCR reaction of the mRNA aliquots is performed on aliquots from before and after purification.

[2] = Sequence analysis of RT-PCR product against reference sequence; conditions: SV40 DNA primer and HIV RT used in cDNA generation
Description: Sequence Analysis: Sequencing was performed using BigDye Terminator Cycle Sequencing. Data analysis was performed by GENEWIZ with DNASTAR Lasergene software. FIG. 34 (SEQ ID NO.: 23) depicts the WT eGFP Consensus sequence (2,225 bp); SV40 DNA primer and HIV RT used in cDNA generation. FIG. 35 (SEQ ID NO.: 24) depicts the Alpha-Thio-Uridine eGFP Consensus (2,225 bp); SV40 RNA primer and Superscript used in cDNA generation.

[3] = molecular target: T1, HIV Reverse Transcriptase (Human immunodeficiency virus type 1 group M subtype B, UniProt P04585); test: RT-PCR of 2.2 kb eGFP transcript with HIV RT, with or without beta-thujaplicinol; assay type: biochemical
T1 construct: a recombinant HIV Reverse Transcriptase; purchased Worthington Biochemical Corporation LS05003
Source text: as §1, §2, §3

B1: EGFP-WT: 2.2 kb wild type eGFP transcript (RNA template synthesized with plasmid pAFTAB) (nucleic acid)
DNA: TTGGCCACTCCCTCTCTGCGCGCTCGCTCGCTCACTGAGGCCGCCCGGGCAAAGCCCGGGCGTCGGGCGACCTTTGGTCGCCCGGCCTCAGTGAGCGAGCGAGCGCGCAGAGAGGGAGTGGCCAA
modifications: chemistry not fully specified; the letters are possibly those of the target site
With B1 the “2.2 kb fragment of interest in PCR from RT reaction” value (“2.2 kb fragment of interest in PCR” for short) (Superscript III; PBS RNA primer) was “present”, the “2.2 kb fragment of interest in PCR” value (Superscript III; PCR-R2 primer) was “present” and the “2.2 kb fragment of interest in PCR” value (Superscript III; SV40 DNA primer) was “present”. For the same molecule, the “OD 260/280 Post-treatment” value ([1]; mRNA solution after DNase treatment and column purification) was 2.05, the “OD 260/280 Pre-treatment” value ([1]; mRNA solution before DNase treatment and column purification) was 2.07 and the “consensus sequence match to the reference sequence” value [2] was 100%. For the same molecule, the “2.2 kb fragment of interest in PCR” value ([3]; SV40 DNA primer, 1.5 μg RNA, β-Thujaplicinol 0 μM) was “present”, the “2.2 kb fragment of interest in PCR” value ([3]; SV40 DNA primer, 2 μg RNA, β-Thujaplicinol 0 μM) was “present” and the “2.2 kb fragment of interest in PCR” value ([3]; SV40 DNA primer, 2 μg RNA, β-Thujaplicinol 1 μM) was “present”. For the same molecule, the “2.2 kb fragment of interest in PCR” value ([3]; SV40 DNA primer, 5 μg RNA, β-Thujaplicinol 0.2 μM) was “present”, the “2.2 kb fragment of interest in PCR” value ([3]; SV40 RNA primer, 1.5 μg RNA, β-Thujaplicinol 0 μM) was “present” and the “2.2 kb fragment of interest in PCR” value ([3]; SV40 RNA primer, 1.5 μg RNA, β-Thujaplicinol 0.2 μM) was “present”. The “2.2 kb fragment of interest in PCR” value ([3]; SV40 RNA primer, 2 μg RNA, β-Thujaplicinol 1 μM) was “present”.
